Results on three molecules are retold here after patent publication US20180230457A1 (published 2018).

In test [1] the target is T1, bovine pancreatic RNase A (bovine, UniProt P61823 27-150).
T1 construct: mature; Commercial purified protein; Used unmodified in ITC and as plate coat; biotinylated only for phage selection
T1 sequence (looked up): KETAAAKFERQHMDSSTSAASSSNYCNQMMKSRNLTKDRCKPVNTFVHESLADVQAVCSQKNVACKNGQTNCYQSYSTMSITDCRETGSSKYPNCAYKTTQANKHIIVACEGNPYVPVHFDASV
The experiment in a line: ITC, 25 C, no metal. How it is done: (§1) ITC experiments were performed using a MicroCal VP-ITC (MicroCal, LLC, Northampton, Mass.). All experiments were performed at 25° C. Proteins were dialyzed against the desired experimental buffer, which included PBS (20 mM NaPhosphate, 150 mM NaCl pH 7.4), TBS (20 mM Tris-HCl, 150 mM NaCl pH 7.4) and TBS-E (20 mM Tris, 150 mM NaCl, 1 mM EDTA, pH 7.4). For direct titration of NiCl₂ into the VHH-metal variant, concentrations were 2 mM and 200 μM for NiCl2 and VHH, respectively. Based on the observed binding constant, this corresponds to a “c-value” of 6.7, which is within the commonly acceptable range for the accurate determination of binding thermodynamics. For competitive titrations, nickel was included in TBS without EDTA at concentrations ranging from 0-10 mM. Competitive VHH/RNase A titration experiments with a “c” value greater than 10 included protein concentrations ranging from 30 μM to 205 μM. Conditions included a 10-fold higher concentration of titrant (VHH). […] These experiments included using a 100-fold higher concentration of titrant (RNase A) relative to VHH. RNase A concentrations were between 150 μM and 800 μM. […] For nickel/VHH titrations, the titrant nickel was dissolved in the appropriate dialysis buffer at a 10× concentration of the VHH. Experiments typically included 27, 10 μL injections with a 240 second delay between each injection. Dilution titrations indicated the absence of significant heats of dilution, consequently, no background dilution heat subtractions were necessary. The binding parameters (K, ΔH°, ΔS°, and n) were determined using the single site binding model using the ITC add-in in Origin version 7 (MicroCal LLC).
(Isothermal titration calorimetry measures the heat released or taken up as one component is titrated into another.)

Test [2] addresses T1, bovine pancreatic RNase A. The experiment in a line: ITC, 25 C, RNase A binding with 1 mM nickel present. The method, then: (§2) The binding parameters (K, ΔH°, ΔS°, and n) were determined using the single site binding model using the ITC add-in in Origin version 7 (MicroCal LLC). All titrations indicated a 1:1 interaction with observed stoichiometries equal to 1.0 (within 5%).
(§3) ITC experiments were performed using a MicroCal VP-ITC (MicroCal, LLC, Northampton, Mass.). All experiments were performed at 25° C. Proteins were dialyzed against the desired experimental buffer, which included PBS (20 mM NaPhosphate, 150 mM NaCl pH 7.4), TBS (20 mM Tris-HCl, 150 mM NaCl pH 7.4) and TBS-E (20 mM Tris, 150 mM NaCl, 1 mM EDTA, pH 7.4). For direct titration of NiCl₂ into the VHHmetal variant, concentrations were 2 mM and 200 μM for NiCl₂ and VHH, respectively. Based on the observed binding constant, this corresponds to a “cvalue” of 6.7, which is within the commonly acceptable range for the accurate determination of binding thermodynamics (Tellinghuisen, 2008; Wiseman et al. 1989). For competitive titrations, nickel was included in TBS without EDTA at concentrations ranging from 0-10 mM. Competitive VHH/RNase A titration experiments with a “c” value greater than 10 included protein concentrations ranging from 30 μM to 205 μM. Conditions included a 10-fold higher concentration of titrant (VHH). […] These experiments included using a 100-fold higher concentration of titrant (RNase A) relative to VHH. RNase A concentrations were between 150 μM and 800 μM. Extinction coefficients were determined using values determined by the methods described by Pace, et. al. (1995). […] For nickel/VHH titrations, the titrant nickel was dissolved in the appropriate dialysis buffer at a 10× concentration of the VHH. Experiments typically included 27, 10 μL injections with a 240 second delay between each injection. Dilution titrations indicated the absence of significant heats of dilution, consequently, no background dilution heat subtractions were necessary. The binding parameters (K, ΔH°, ΔS°, and n) were determined using the single site binding model using the ITC add-in in Origin version 7 (MicroCal LLC).

Test [3] concerns the target T1, bovine pancreatic RNase A. The experiment in a line: ITC, pH profile 8.0 to 4.5.
The target of test [4] is T1, bovine pancreatic RNase A. The experiment in a line: ITC, pH 4.74, piperazine.
Test [5] has as its target T1, bovine pancreatic RNase A. As to the kind of experiment: ITC, pH 5, piperazine.
In test [6] the target is T1, bovine pancreatic RNase A. As to the kind of experiment: ITC, pH 6, PBS.
Test [7] addresses T1, bovine pancreatic RNase A. As to the kind of experiment: ITC, pH 4.5, piperazine.
Test [8] has as its target T1, bovine pancreatic RNase A. The experiment in a line: ITC, pH 6.5, imidazole.
Test [9] has as its target T1, bovine pancreatic RNase A. As to the kind of experiment: ITC, pH 5.5, acetate.
In test [10] the target is T1, bovine pancreatic RNase A. As to the kind of experiment: ITC, pH 7.4, against wild-type VHH.
Test [11] has as its target T1, bovine pancreatic RNase A. The experiment in a line: ITC, pH 8, TRIS.
Test [12] has as its target T1, bovine pancreatic RNase A. As to the kind of experiment: ITC, pH 7.4.
For test [13], the target named is T1, bovine pancreatic RNase A. As to the kind of experiment: ITC, pH 7, PBS.
The target in test [14] is T1, bovine pancreatic RNase A. The experiment in a line: ITC, pH 7.4, PBS.
In test [15] the target is T1, bovine pancreatic RNase A. The experiment in a line: competitive phage ELISA with and without 1 mM metals (Zn2+, Co2+, Ni2+). (In general: In an ELISA, binding on a coated surface is turned into a signal by an enzyme label.)
The target in test [16] is T1, bovine pancreatic RNase A. The experiment in a line: ITC, 25 C, RNase A binding with 100 µM nickel present.
Test [17] addresses T1, bovine pancreatic RNase A. The experiment in a line: ITC, 25 C, RNase A binding with 1 µM nickel present. The method, then: as §2, §3
Test [18] addresses T1, bovine pancreatic RNase A. The experiment in a line: ITC, 25 C, RNase A binding with 10 µM nickel present. The method, then:
as §2, §3

In test [19] the target is T1, bovine pancreatic RNase A. As to the kind of experiment: ITC, 25 C, pH 7.4, no metal. How it is done:
as §1

For test [20], the target named is T1, bovine pancreatic RNase A. As to the kind of experiment: ITC, 25 C, no metal. How it is done: (§4) Isothermal titration calorimetry (ITC) was used to evaluate the thermodynamic basis for VHH-metal's dual function. […] As expected, titrations of nickel into wild-type anti-RNase A VHH produced no measurable binding.
(§5) ITC experiments were performed using a MicroCal VP-ITC (MicroCal, LLC, Northampton, Mass.). All experiments were performed at 25° C. Proteins were dialyzed against the desired experimental buffer, which included PBS (20 mM NaPhosphate, 150 mM NaCl pH 7.4), TBS (20 mM Tris-HCl, 150 mM NaCl pH 7.4) and TBS-E (20 mM Tris, 150 mM NaCl, 1 mM EDTA, pH 7.4). For direct titration of NiCl₂ into the VHH-metal variant, concentrations were 2 mM and 200 μM for NiCl2 and VHH, respectively. Based on the observed binding constant, this corresponds to a “c-value” of 6.7, which is within the commonly acceptable range for the accurate determination of binding thermodynamics. For competitive titrations, nickel was included in TBS without EDTA at concentrations ranging from 0-10 mM. Competitive VHH/RNase A titration experiments with a “c” value greater than 10 included protein concentrations ranging from 30 μM to 205 μM. Conditions included a 10-fold higher concentration of titrant (VHH).
This is another data set of the same source.

Test [21] has as its target T1, bovine pancreatic RNase A. As to the kind of experiment: ITC, 25 C, RNase A binding with 10 mM nickel present. How it is done: as §2, §3
Test [22] has as its target T1, bovine pancreatic RNase A. The experiment in a line: ITC, 25 C, no metal, against wild-type VHH. The method, then:
as §4, §5

What is called Kd is the concentration at which binding is half-saturated. Higher therefore signals a looser complex.

B1: wild-type anti-RNase A VHH (cAb-RN05) (VHH)
VHH: QVQLVESGGGLVQAGGSLRLSCAASGYAYTYIYMGWFRQAPGKEREGVAAMDSGGGGTLYADSVKGRFTISRDKGKNTVYLQMDSLKPEDTATYYCAAGGGYELRDRTYGQWGQGTQVTVSS
notes: Camelid single-domain antibody; Made in E. coli with an N-terminal hexa-His-TEV tag for ITC; also called VHH-wt; wt-VHH
As for B1, in test [1], the “-TΔS°” value was 1.9 kcal/mol, the Kd came to 19 nM, the “ΔG°” value was -10.5 kcal/mol and the “ΔH°” value was -12.4 kcal/mol. For the same molecule, in [2], the “-TΔS°” value came to 0.9 kcal/mol; the affinity, expressed as Kd, was 16 nM; the “ΔG°” value is -10.6 kcal/mol; the “ΔH°” value is -10.7 kcal/mol.

B2: VHH#24 (pH clone #24) (VHH)
VHH: QVQLVESGGGLVQAGGSLRLSCAASGYHHTYIYMGWFRQAPGKEREGVAAMDSGGGGTLYADSVKGRFTISRDKGKNTVYLQMDSLKPEDTATYYCAAGGGHHLRDHTYGQWGQGTQVTVSS
With B2, the “fold decrease of the observed binding constant on decreasing the pH” value in [3] is around 10000 fold. Also, the “-TΔS” value in test [4] was 6.8 kcal/mol; in test [5], -2.4 kcal/mol; in test [6] it was -8.6 kcal/mol; in test [7], 25.4 kcal/mol; in test [11], -3.8 kcal/mol; in test [13], 0.7 kcal/mol. The “-TΔS” value in test [14] is -2.5 kcal/mol. Further, the Kd stood at 75000 nM in test [4]; 12000 nM in test [5]; 6500 nM in test [6]; 400 nM in test [8]; 6300 nM in test [9]; 100 nM in test [11]. Besides, the values for the Kd in [12], in [13] and in test [14] were 91 nM, 200 nM and 200 nM, respectively. In addition, the ΔG in test [4] was -5.62 kcal/mol; in [5], -7.03 kcal/mol; in [6], -7.07 kcal/mol; in test [7], -5.11 kcal/mol; in [8], -8.73 kcal/mol; in test [9], -7.09 kcal/mol. For the same molecule, the results for the ΔG in test [11], in test [13] and in [14] were -9.37 kcal/mol, -9.07 kcal/mol and -9.31 kcal/mol, respectively. Besides, the ΔH in test [4] is -12.4 kcal/mol; in test [5], -4.8 kcal/mol; in test [6], 1.5 kcal/mol; in test [7], -30 kcal/mol; in test [8], -9.44 kcal/mol; in [9], 3 kcal/mol. In addition, the ΔH in test [11] is -9 kcal/mol; in test [13], -4.35 kcal/mol; in test [14], -6.84 kcal/mol. The “fold difference of binding affinity from the wild-type value” in test [10] was at most 5 fold.

B3: VHH-metal (metal sensitive anti-RNase A VHH) (VHH)
VHH: QVQLVESGGGLVQAGGSLRLSCAASGYPHPYLHMGWFRQAPGKEREGVAAMDSGGGGTLYADSVKGRFTISRDKGKNTVYLQMDSLKPEDTATYYCAAGGGYQLRDRTYGHWGQGTQVTVSS
notes: also called Metal-VHH; metal clone VHH
As to B3, the “fold change in IC50” value in [15] worked out at 1000 fold. The “-TΔS°” value in [16] is -1 kcal/mol; in test [17], 8 kcal/mol; in test [18] it was 3.6 kcal/mol; in [19] it was 9 kcal/mol; in test [2], 0.09 kcal/mol; in test [21] it was 1.3 kcal/mol. Moreover, the Kd in test [16] came to 900 nM; in [17] it was 160 nM; in test [18], 219 nM; in test [19] it was 157 nM; in [20], 155 nM; in [2], 5640 nM. Besides, binding in test [21] was characterised by a dissociation constant (Kd) of 34000 nM. Also, the “ΔG°” value in test [16] was -8.27 kcal/mol; in test [17] it was -9.27 kcal/mol; in [18], -9.1 kcal/mol; in test [19], -9.3 kcal/mol; in [2], -7.13 kcal/mol; in [21], -6.07 kcal/mol. Further, the “ΔH°” value is -7 kcal/mol in test [16]; -17.2 kcal/mol in [17]; -12.7 kcal/mol in test [18]; -17.8 kcal/mol in test [19]; -7.2 kcal/mol in test [2]; -7.3 kcal/mol in [21]. For the same molecule, the “fold decrease in binding affinity against wild type” value in [22] is around 8 fold. Moreover, in test [22], the “ΔΔG°” value stood at 1.2 kcal/mol.
